Measurements taken from patent US20260049143A1 (KYMAB, published 2026).

T1: human ICOS-mFc (Chimerigen) (human, UniProt Q9Y6W8 21-140, limits assumed)
T1 construct: Bought fusion; also called hICOS; recombinant human ICOS protein; not shown: mouse Fc
T1 sequence: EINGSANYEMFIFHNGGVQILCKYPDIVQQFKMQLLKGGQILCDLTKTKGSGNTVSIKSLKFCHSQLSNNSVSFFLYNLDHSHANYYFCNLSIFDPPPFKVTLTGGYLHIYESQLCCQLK

T2: mouse ICOS expressed on CHO cells (mouse, UniProt Q9WVS0 21-141)
T2 construct: the cell-expressed form may differ; also called mICOS; CHO mouse ICOS
T2 sequence: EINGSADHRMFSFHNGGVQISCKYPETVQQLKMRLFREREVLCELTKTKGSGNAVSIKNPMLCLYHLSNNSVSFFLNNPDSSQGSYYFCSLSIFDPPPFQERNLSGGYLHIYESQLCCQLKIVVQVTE

T3: mouse ICOS-mFc (Chimerigen) (mouse, UniProt Q9WVS0 21-141, limits assumed)
T3 construct: Bought fusion; also called mICOS; recombinant mouse ICOS protein; not shown: mouse Fc
T3 sequence: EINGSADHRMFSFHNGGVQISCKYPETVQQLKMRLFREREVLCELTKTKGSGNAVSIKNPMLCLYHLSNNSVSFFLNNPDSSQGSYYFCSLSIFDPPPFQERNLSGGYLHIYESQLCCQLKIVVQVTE


Legend:
[1] = molecular target: T1, human ICOS-mFc (Chimerigen); assay: HTRF neutralisation of human B7-H2 binding to human ICOS-mFc, n3
Method: (§1) 5 μl of human ICOS-mFc (Chimerigen) at 20 nM (5 nM final) or 5 μl of mouse ICOS-mFc (Chimerigen) at 4 nM (1 nM final) were added to relevant assay wells. Plate was incubated for 1 hour (hr) at room temperature (RT).
(§2) After incubation, assay was read on Envision plate reader (Perkin Elmer) using a standard HTRF protocol. 620 nm and 665 nm channel values were exported to Microsoft Excel and % Delta-F and % Neutralisation calculations performed. Titration curves and IC50 values [M] were plotted using Graphpad (Prism). IC50 values were calculated by first transforming the data using equation X=Log(X). The transformed data was then fitted using nonlinear regression, using fitting algorithm, log (inhibitor) vs. response-variable slope (four parameters).

[2] = molecular target: T1, human ICOS-mFc (Chimerigen); assay: HTRF neutralisation of human B7-H2 binding to human ICOS-mFc, average
Method: as §1, §2

[3] = molecular target: T2, mouse ICOS expressed on CHO cells; assay: flow cytometry, CHO mouse ICOS cells, anti-human IgG AF647, N=3
Method: CHO-S cells transfected with either human ICOS or mouse ICOS were resuspended in FACS buffer (PBS+1% w/v BSA+0.1% w/v sodium azide) and transferred to a 96-well V-bottom plate (Greiner) at a density of 1×10⁵ cells per well. mAb and mAb² were titrated in FACS buffer, 1 in 3 dilution across 11 points from a starting working concentration of 400 nM. Plates were centrifuged at 300×g for 3 minutes, supernatant discarded and 50 μL mAb or mAb² solution were added to cells and incubated at 4° C. for 1 hour. Cells were washed with 150 μL of PBS and centrifuged at 300×g for 3 minutes, supernatant was discarded and cell pellet resuspended in 150 μL PBS added. This wash step was repeated twice. […] Cells were incubated for 1 hour at 4° C. in the dark. Cells were washed with 150 μL of PBS and centrifuged at 300 g for 3 minutes, supernatant was discarded and cell pellet resuspended in 150 μL PBS added. This wash step was repeated twice. Cells were fixed with 25 μL 4% v/v paraformaldehyde, incubated for 20 minutes at 4° C., cells were pelleted by centrifugation at 300×g and the supernatant discarded. Cells were washed with 150 μL of PBS and centrifuged at 300 g for 3 minutes, supernatant was discarded and cell pellet resuspended in 150 μL PBS added. This wash step was repeated. Pelleted cells were resuspended in 110 μL 1×PBS.

[4] = molecular target: T1, human ICOS-mFc (Chimerigen); assay: DELFIA ELISA, coated human ICOS-mFc, N=3
Method: (§3) Recombinant ICOS proteins, human ICOS-mFc or mouse ICOS-mFc (Chimerigen) were diluted in 1×PBS and added to Black Hi-bind plates (Griener) at 1 μg/ml, 50 μl/well. Recombinant PD-L1 proteins, human PD-L1-Flag-His or mouse-His were diluted in 1×PBS and added to Black Hi-bind plates (Griener) at 4 μg/ml, 50 μl/well. The plates were left overnight at 4° C. The next day plates were washed 3× with 300 μl/well of 1×PBS+0.1% Tween and blocked with 200 μl/well of 1×PBS+1% BSA blocking buffer for 1 hr at RT on a plate shaker. Plates were washed 3× with 300 μl/well of 1×PBS+0.1% Tween.
(§4) However, human-PD-L1 mAb² antibodies were diluted in 1×PBS+0.1% BSA buffer and diluted 1 in 2 from a starting working concentration of 0.066 μM over an 11 point titration. Titrated antibodies were added to the plates, 50 μl/well and left to incubate for 1 hr at R.T on a plate shaker. Plates were washed 3× with 300 μl/well of 1×PBS+0.1% Tween.
(§5) DELFIA® Eu-labelled Anti-human IgG(Perkin-Elmer) was diluted 1:500 in DELFIA Assay buffer (Perkin-Elmer) and added to the assay plate (50 μl/well), left to incubate for 1 hr at RT on a plate shaker. […] After incubation, assay was read on Envision plate reader (Perkin Elmer), Time-resolved fluorescence (TRF) was measured at 615 nm.

[5] = molecular target: T3, mouse ICOS-mFc (Chimerigen); assay: HTRF neutralisation of mouse B7-H2 binding to mouse ICOS-mFc, n1
Method: as §1, §2

[6] = molecular target: T3, mouse ICOS-mFc (Chimerigen); assay: DELFIA ELISA, coated mouse ICOS-mFc, N=2
Method: as §3, §4, §5

[7] = molecular target: T1, human ICOS-mFc (Chimerigen); assay: DELFIA ELISA, coated human ICOS-mFc, N=1
Method: as §3, §4, §5

[8] = molecular target: T1, human ICOS-mFc (Chimerigen); assay: HTRF neutralisation of human B7-H2 binding to human ICOS-mFc, n1
Method: as §1, §2

[9] = molecular target: T3, mouse ICOS-mFc (Chimerigen); assay: HTRF neutralisation of mouse B7-H2 binding to mouse ICOS-mFc, n2
Method: as §1, §2

[10] = molecular target: T3, mouse ICOS-mFc (Chimerigen); assay: HTRF neutralisation of mouse B7-H2 binding to mouse ICOS-mFc, mean as told in text (table prints 5.07)
Method: as §2

[11] = molecular target: T3, mouse ICOS-mFc (Chimerigen); assay: DELFIA ELISA, coated mouse ICOS-mFc, mean (only N=1 kept)
Method: as §3, §4, §5

IC50 [1]	IC50 [2]	EC50 [3]	EC50 [4]	IC50 [5]	EC50 [6]	EC50 [7]	IC50 [8]	IC50 [9]	IC50 [10]	EC50 [11]	Binder
0.77 nM	0.56 nM	11.9 nM	0.401 nM	0.087 nM	0.252 nM	0.51 nM	0.44 nM				STIM003_457 (bispecific antibody, V domains shown, not shown: a dimerising Fc or GST, mAb^2 IgG1; also called ST1M003_457; STIM003_457 mAb^2) VH: EVQLVESGGGVVRPGGSLRLSCVASGVTFDDYGMSWVRQAPGKGLEWVSGINWNGGDTDYSDSVKGRFTISRDNAKNSLYLQMNSLRAEDTALYYCARDFYGSGSYYHVPFDYWGQGILVTVSS VL: EIVLTQSPGTLSLSPGERATLSCRASQSVSRSYLAWYQQKRGQAPRLLIYGASSRATGIPDRFSGDGSGTDFTLSISRLEPEDFAVYYCHQYDMSPFTFGPGTKVDIK
2.38 nM	1.6 nM	6.97 nM	9.17 nM	3.39 nM			1.1 nM	5.49 nM	5.16 nM	23.6 nM	STIM001_457 (bispecific antibody, V domains shown, not shown: a dimerising Fc or GST, mAb^2 IgG1; also called STIM001_457 mAb^2) VH: QVQVVQSGAEVKKPGASVKVSCKASGYTFSTFGITWVRQAPGQGLEWMGWISAYNGDTNYAQNLQGRVIMTTDTSTSTAYMELRSLRSDDTAVYYCARSSGHYYYYGMDVWGQGTTVTVSS VL: DIVMTQSPLSLPVTPGEPASISCRSSQSLLHSNEYNYLDWYLQKPGQSPQLLIFLGSNRASGVPDRFSGSGSGTDFTLKITRVEAEDVGIYYCMQSLQTPLTFGGGTKVEIK
